Here are results for 9 proteins from FireProtDB.

For the data set the following is noted: whole UniProt chain shown.
The mark [1] stands for this setting: Bacillus amyloliquefaciens, pH 7, 25 °C, GdnHCl, CD, phosphate 20 mM.
Setting [2] is: Bacillus amyloliquefaciens, pH 8, 25 °C, Urea, Fluorescence, Tris-HCl 50 mM, reversible: yes.
[3] abbreviates: Bacillus amyloliquefaciens, pH 8, Thermal, CD, Sodium phosphate 2 mM, reversible: yes.
[4] abbreviates: Bacillus amyloliquefaciens, pH 8, Thermal, DSC, Sodium phosphate 10 mM, reversible: yes.
The mark [5] stands for this setting: Bacillus amyloliquefaciens, pH 9.5, Thermal, DSC, Sodium phosphate 10 mM, reversible: yes.
[6] abbreviates: Bos taurus, pH 5.3, 5 °C, GdnHCl, CD, Sodium acetate 0.02 M, reversible: yes.
Where [7] appears, read: Bacillus licheniformis (strain ATCC 14580 / DSM 13 / JCM 2505 / CCUG 7422 / NBRC 12200 / NCIMB 9375 / NCTC 10341 / NRRL NRS-1264 / Gibson 46…, pH 7, Thermal, CD, Hepes 10 mM, reversible: Yes.
The mark [8] stands for this setting: Aliivibrio salmonicida (strain LFI1238), pH 8, Thermal, DSC, HEPES, MgCl2 NaCl 5 mM 0.175, reversible: no.
[9] abbreviates: Aliivibrio salmonicida (strain LFI1238), pH 8, Thermal, DSC, HEPES, MgCl2 NaCl 5 mM 1, reversible: no.
The mark [10] stands for this setting: Aliivibrio salmonicida (strain LFI1238), pH 8, Thermal, DSC, Tris-HCl 50mM, NaCl 0.175 M.
[11] abbreviates: Aliivibrio salmonicida (strain LFI1238), pH 8, Thermal, DSC, Tris-HCl 50mM, NaCl 1 M.
The mark [12] stands for this setting: Aquifex aeolicus (strain VF5), pH 7, 20 °C, GdnHCl, Fluorescence, Sodium phosphate sodium chloride 25 mM 100 mM.
The mark [13] stands for this setting: Bacillus caldolyticus, pH 7, Thermal, CD, sodium cacodylate 100 mM, NaCl 2 M, reversible: yes.
Where [14] appears, read: Bacillus caldolyticus, pH 7, Thermal, CD, sodium cacodylate 100 mM, reversible: yes.

B1: Barstar wild type, P11540 (protein)
chain: MKKAVINGEQIRSISDLHQTLKKELALPEYYGENLDALWDCLTGWVEYPLVLEWRQFEQSKQLTENGAESVLQVFREAKAEGCDITIILS
One may read the Tm as the temperature at the midpoint of the melting transition. Regarding B1, under setting [1], the “denaturant midpoint (higher = more stable)” value (“denaturant midpoint” below) was found to be 1.92 M and the unfolding free energy came out at 4.6 kcal/mol. In addition, the unfolding free energy (Bacillus amyloliquefaciens, pH 8, 10 °C, Urea, CD, Tris Cl 50 mM, KCl 100 mM) came out at 3 kcal/mol. Besides, under setting [2], the denaturant m value was determined as 1.25 kcal/mol/M, the “denaturant midpoint” value came out at 3.87 M and the unfolding free energy is 4.84 kcal/mol. Moreover, under setting [3], the midpoint of thermal melting (Tm) was 70 °C, the “heat capacity change of unfolding” value stood at 1.49 kcal/mol/K and the “unfolding enthalpy (van 't Hoff)” value amounted to 69.7 kcal/mol. Under setting [4], the Tm came out at 69.7 °C, the “heat capacity change of unfolding” value came out at 1.41 kcal/mol/K, the “unfolding enthalpy (calorimetric)” value was determined as 42.6 kcal/mol and the “unfolding enthalpy (van 't Hoff)” value is 60 kcal/mol. Moreover, under setting [5], the Tm came out at 68.7 °C, the “heat capacity change of unfolding” value is 1.36 kcal/mol/K, the “unfolding enthalpy (calorimetric)” value was found to be 41.2 kcal/mol and the “unfolding enthalpy (van 't Hoff)” value came out at 56.1 kcal/mol.

B2: Cytidine deaminase wild type, P19079 (protein)
chain: MNRQELITEALKARDMAYAPYSKFQVGAALLTKDGKVYRGCNIENAAYSMCNCAERTALFKAVSEGDTEFQMLAVAADTPGPVSPCGACRQVISELCTKDVIVVLTNLQGQIKEMTVEELLPGAFSSEDLHDERKL
For the protein B2, the unfolding free energy (Bacillus subtilis (strain 168), pH 7, 25 °C, GdnHCl, CD, potassium phosphate 20 mM, reversible: no) was found to be 2.5 kcal/mol.

B3: Cytidine deaminase wild type, Q9R2S1 (protein)
chain: MEIEQLIVEAKKARELAYVPYSKFPVGAALLTKGGSVYRGCNIENAAYSVCNCAERTALFKAYSEGEKEFTALAVIADTPRPVPPCGACRQVIAELCHGDMKVILANLKGDVKVMTVSELLPEAFSAEDLHA
On to B3, for which the unfolding free energy (Bacillus caldolyticus, pH 7, 25 °C, GdnHCl, CD, potassium phosphate 20 mM, reversible: no) was 4.3 kcal/mol.

B4: Acyl-CoA-binding protein wild type, P07107 (protein)
chain: MSQAEFDKAAEEVKHLKTKPADEEMLFIYSHYKQATVGDINTERPGMLDFKGKAKWDAWNELKGTSKEDAMKAYIDKVEELKKKYGI
For B4, under setting [6], the denaturant m value turned out to be 2.7 kcal/mol/M, the “denaturant midpoint” value was 2.36 M and the unfolding free energy was 6.1 kcal/mol.

B5: Protein GrpE wild type, Q65H53 (protein)
chain: MAEEKQNEELNEQEELNETEAETAEAEQTAAEADAPAEETQTEMLEKQLKELQERLEEKENKLLRVQADFENYKRRARLDLEAAEKYRSQRIISDLLPALDNFERALQIDPDNEQTKSLLQGMEMVHRQILEALKNEGVEQIPSVGEQFDPNMHQAVMQVEDEAYESNAVVEELQKGYKLKDRVIRPSMVKVNQ
On to B5, for which, under setting [7], the Tm was determined as 52 °C and the “unfolding enthalpy (van 't Hoff)” value was determined as 99.9 kcal/mol.

B6: wild type, Q2XSL7 (protein)
chain: MKLIRLVISLIAVSFTVNVMAAPPSSFSKAKKEAVKIYLDYPTSFYCGCDITWKNKKKGIPELESCGYQVRKQEKRASRIEWEHVVPAWQFGHQRQCWQKGGRKNCTRNDKQFKSMEADLHNLVPAIGEVNGDRSNFRFSQWNGSKGAFYGQCAFKVDFKGRVAEPPAQSRGAIARTYLYMNNEYKFNLSKAQRQLMEAWNKQYPVSTWECTRDERIAKIQGNHNQFVYKACTK
For the protein B6, the Tm is, setting by setting: under setting [8], 41.8 °C; under setting [9], 51.9 °C; under setting [10], 41.8 °C; under setting [11], 51.9 °C. Moreover, the “unfolding enthalpy (calorimetric)” value by setting is: under setting [8], 64 kcal/mol; under setting [9], 88.7 kcal/mol; under setting [10], 64 kcal/mol; under setting [11], 88.6 kcal/mol.

B7: wild type, O66926 (protein)
chain: MKKFLIPFLTFLGFTFSSELIPCKVVRVVDGDTFRCVPEGKSRFIKVRLMGIDTLETNNMKKGMGQAKWFYGGIRTVKEFGKKAKEFSKRLIDKKVVYLELPVRKMDNNGRYLAYVWLDEYRNKMLNLLLVKEGLAFVFIIPPQVKYLKELGEAQEEAYKDRRGFWKYFKGE
Regarding B7, under setting [12], the denaturant m value was 1.02 kcal/mol/M, the “denaturant midpoint” value is 0.42 M and the unfolding free energy was 2.8 kcal/mol.

B8: Cold shock protein CspB wild type, P41016 (protein)
chain: MQRGKVKWFNNEKGYGFIEVEGGSDVFVHFTAIQGEGFKTLEEGQEVSFEIVQGNRGPQAANVVKL
Consider B8, for which the unfolding free energy turned out to be 3.37 kcal/mol (Bacillus caldolyticus, pH 7, 60 °C, Thermal, CD, sodium cacodylate 100 mM, NaCl 2 M, reversible: yes) and 2.44 kcal/mol (Bacillus caldolyticus, pH 7, 60 °C, Thermal, CD, sodium cacodylate 100 mM, reversible: yes). The Tm under setting [13] was found to be 84.4 °C and the Tm under setting [14] was 76.9 °C. The “unfolding enthalpy (van 't Hoff)” value came to 61.4 kcal/mol under setting [13] and 58.6 kcal/mol under setting [14].

B9: Serine protease 1 wild type, P00760 (protein)
chain: MKTFIFLALLGAAVAFPVDDDDKIVGGYTCGANTVPYQVSLNSGYHFCGGSLINSQWVVSAAHCYKSGIQVRLGEDNINVVEGNEQFISASKSIVHPSYNSNTLNNDIMLIKLKSAASLNSRVASISLPTSCASAGTQCLISGWGNTKSSGTSYPDVLKCLKAPILSDSSCKSAYPGQITSNMFCAGYLEGGKDSCQGDSGGPVVCSGKLQGIVSWGSGCAQKNKPGVYTKVCNYVSWIKQTIASN
For the protein B9, the unfolding free energy (Bos taurus, pH 5.8, 25 °C, GdnHCl, Fluorescence, MES 0.1 M) stood at 10.9 kcal/mol.
